Here are results for six proteins from the PETadex activity labels (doi:10.1016/j.enzmictec.2020.109715).

Substrate in data set [1]: pNP-C8
The data set is described as follows: Proxy for plastic degradation [Relative activity].

Substrate in another data set: PET
Put plainly: Proxy for plastic degradation [Released monomer concentration (HPLC/LC-MS) (MHET+TPA+BHET)]. As to conditions: pH 8.

Substrate in data set [2]: pNP-C8
The data set is described as follows: Proxy for plastic degradation [p-nitrophenol (pNP) release] (% relative activity).

Substrate in another data set: BHET
As to conditions: pH 7; 40 °C; part of the chain shown.

Substrate in a further data set: p-NP-C2
As to conditions: pH 7; 40 °C; part of the chain shown.

Substrate in another data set: p-NP-C4
As to conditions: pH 7; 40 °C; part of the chain shown.

B1: unnamed (protein)
chain: MNFPRASRLMQAAVLGGLMAVSAAATAQTNPYARGPNPTAASLEASAGPFTVRSFTVSRPSGYGAGTVYYPTNAGGTVGAIAIVPGYTARQSSIKWWGPRLASHGFVVITIDTNSTLDQPSSRSSQQMAALRQVASLNGTSSSPIYGKVDTARMGVMGWSMGGGGSLISAANNPSLKAAAPQAPWDSSTNFSSVTVPTLIFACENDSIAPVNSSALPIYDSMSRNAKQFLEINGGSHSCANSGNSNQALIGKKGVAWMKRFMDNDTRYSTFACENPNSTRVSDFRTANCSLEHHHHHH
As to B1, the “Proxy for plastic degradation” value with pNP-C8 [1] (5 °C) was 100%; in the data set with pNP-C8 [1] (30 °C), 80%; in the data set with pNP-C8 [1] (35 °C), 100%; in the data set with pNP-C8 [1] (pH 3), 10%; with pNP-C8 [1] (pH 4), 20%; in the data set with pNP-C8 [1] (pH 5), 65%. Moreover, the “Proxy for plastic degradation” value in the data set with pNP-C8 [1] (pH 6) stood at 95%; with pNP-C8 [1] (pH 7) it was 98%; with pNP-C8 [1] (pH 8) it was 100%; with pNP-C8 [1] (pH 9), 95%; in the data set with pNP-C8 [1] (pH 10), 70%; with PET (30 °C) it was 1.8 mM. The “Proxy for plastic degradation” value was determined as 2.2 mM in the data set with PET (40 °C); 0.8 mM with PET (50 °C); 0.4 mM with PET (60 °C); 0.2 mM with PET (70 °C); 0.1 mM in the data set with PET (80 °C).

B2: unnamed (protein)
chain: MQVVLGRVRSAGLLAALLALAAWALVWASPSAEAQSNPYQRGPNPTRSALTTDGPFSVATYSVSRLSVSGFGGGVIYYPTGTTLTFGGIAMSPGYTADASSLAWLGRRLASHGFVVIVINTNSRLDFPDSRASQLSAALNYLRTSSPSAVRARLDANRLAVAGHSMGGGATLRISEQIPTLKAGVPLTPWHTDKTFNTPVPQLIVGAEADTVAPVSQHAIPFYQNLPSTTPKVYVELDNATHFAPNSPNAAISVYTISWMKLWVDNDTRYRQFLCNVNDPALSDFRSNNRHCQ
With B2, the “Proxy for plastic degradation” value is 100% in the data set with pNP-C8 [1] (5 °C); 20% with pNP-C8 [1] (30 °C); 30% in the data set with pNP-C8 [1] (35 °C); 0% in the data set with pNP-C8 [1] (pH 3); 20% with pNP-C8 [1] (pH 4); 70% in the data set with pNP-C8 [1] (pH 5). The “Proxy for plastic degradation” value turned out to be 95% with pNP-C8 [1] (pH 6); 100% in the data set with pNP-C8 [1] (pH 7); 100% in the data set with pNP-C8 [1] (pH 8); 90% with pNP-C8 [1] (pH 9); 15% with pNP-C8 [1] (pH 10); 0 with pNP-C8 [2] (pH 3). Further, the “Proxy for plastic degradation” value with pNP-C8 [2] (pH 4) was determined as 17; in the data set with pNP-C8 [2] (pH 5), 69; with pNP-C8 [2] (pH 6), 94; in the data set with pNP-C8 [2] (pH 7), 100; with pNP-C8 [2] (pH 8), 100; with pNP-C8 [2] (pH 8, 5 °C) it was 100. In addition, the “Proxy for plastic degradation” value with pNP-C8 [2] (pH 8, 30 °C) stood at 21; with pNP-C8 [2] (pH 8, 35 °C), 30; with pNP-C8 [2] (pH 9) it was 88; in the data set with pNP-C8 [2] (pH 10), 11; with PET (30 °C), 0 mM; with PET (40 °C), 0.2 mM. Besides, the “Proxy for plastic degradation” value stood at 1.1 mM with PET (50 °C), 3.8 mM in the data set with PET (60 °C), 6.2 mM in the data set with PET (70 °C) and 4.9 mM in the data set with PET (80 °C).

B3: unnamed (protein)
chain: MNFPRASRLMQAAVLGGLMAVSAAATAQTNPYARGPNPTAASLEASAGPFTVRSFTVSRPSGYGAGTVYYPTNAGGTVGAIAIVPGYTARQSSIKWWGPRLASHGFVVITIDTNSTLDQPSSRSSQQMAALRQVASLNGTSSSPIYGKVDTARMGVMGWSMGGGGSLISAANNPSLKAAAPQAPWDSSTNFSSVTVPTLIFACENDSIAPVNSSALPIYDSMSRNAKQFLEINGGSHSCANSGNSNQALIGKKGVAWMKRFMDNDTRYSTFACENPNSTRVSDFRTANCS
Consider B3, for which the “Proxy for plastic degradation” value with pNP-C8 [2] (pH 3, part of the chain shown) amounted to 10; with pNP-C8 [2] (pH 4, part of the chain shown), 17; with pNP-C8 [2] (pH 5, part of the chain shown), 62; with pNP-C8 [2] (pH 6, part of the chain shown), 94; in the data set with pNP-C8 [2] (pH 7, part of the chain shown), 98; with pNP-C8 [2] (pH 8, 5 °C, part of the chain shown), 100. Moreover, the “Proxy for plastic degradation” value came to 80 with pNP-C8 [2] (pH 8, 30 °C, part of the chain shown); 100 in the data set with pNP-C8 [2] (pH 8, 35 °C, part of the chain shown); 100 with pNP-C8 [2] (pH 8, part of the chain shown); 96 with pNP-C8 [2] (pH 9, part of the chain shown); 69 with pNP-C8 [2] (pH 10, part of the chain shown).

B4: unnamed (protein)
chain: SNPYQRGPNPTRSALTADGPFSVATYTVSRLSVSGFGGGVIYYPTGTSLTFGGIAMSPGYTADASSLAWLGRRLASHGFVVLVINTNSRFDYPDSRASQLSAALNYLRTSSPSAVRARLDANRLAVAGHSMGGGGTLRIAEQNPSLKAAVPLTPWHTDKTFNTSVPVLIVGAEADTVAPVSQHAIPFYQNLPSTTPKVYVELDNASHFAPNSNNAAISVYTISWMKLWVDNDTRYRQFLCNVNDPALSDFRTNNRHCQ
As to B4, the “Proxy for plastic degradation” value in the data set with pNP-C8 [1] (5 °C, part of the chain shown) was found to be 100%; with pNP-C8 [1] (30 °C, part of the chain shown), 35%; in the data set with pNP-C8 [1] (35 °C, part of the chain shown), 48%; with pNP-C8 [1] (pH 3, part of the chain shown) it was 0%; with pNP-C8 [1] (pH 4, part of the chain shown), 20%; in the data set with pNP-C8 [1] (pH 5, part of the chain shown) it was 70%. Also, the “Proxy for plastic degradation” value amounted to 100% with pNP-C8 [1] (pH 6, part of the chain shown); 100% with pNP-C8 [1] (pH 7, part of the chain shown); 90% with pNP-C8 [1] (pH 8, part of the chain shown); 55% in the data set with pNP-C8 [1] (pH 9, part of the chain shown); 0% in the data set with pNP-C8 [1] (pH 10, part of the chain shown); 0 mM with PET (30 °C, part of the chain shown). Further, the “Proxy for plastic degradation” value with PET (40 °C, part of the chain shown) turned out to be 0.4 mM; in the data set with PET (50 °C, part of the chain shown), 1.5 mM; with PET (60 °C, part of the chain shown), 3.8 mM; in the data set with PET (70 °C, part of the chain shown) it was 5.8 mM; in the data set with PET (80 °C, part of the chain shown), 4 mM.

B5: unnamed (protein)
chain: MDGVLWRVRTAALMAALLALAAWALVWASPSVEAQSNPYQRGPNPTRSALTADGPFSVATYTVSRLSVSGFGGGVIYYPTGTSLTFGGIAMSPGYTADASSLAWLGRRLASHGFVVLVINTNSRFDYPDSRASQLSAALNYLRTSSPSAVRARLDANRLAVAGHSMGGGGTLRIAEQNPSLKAAVPLTPWHTDKTFNTSVPVLIVGAEADTVAPVSQHAIPFYQNLPSTTPKVYVELDNASHFAPNSNNAAISVYTISWMKLWVDNDTRYRQFLCNVNDPALSDFRTNNRHCQ
Turning to B5, the “Proxy for plastic degradation” value came out at 0 with pNP-C8 [2] (pH 3); 17 with pNP-C8 [2] (pH 4); 69 in the data set with pNP-C8 [2] (pH 5); 100 in the data set with pNP-C8 [2] (pH 6); 100 with pNP-C8 [2] (pH 7); 89 in the data set with pNP-C8 [2] (pH 8). The “Proxy for plastic degradation” value with pNP-C8 [2] (pH 8, 5 °C) came to 100; with pNP-C8 [2] (pH 8, 30 °C), 32; with pNP-C8 [2] (pH 8, 35 °C) it was 47; in the data set with pNP-C8 [2] (pH 9) it was 54; with pNP-C8 [2] (pH 10), 0.

B6: unnamed (protein)
chain: QSNPYQRGPNPTRSALTTDGPFSVATYSVSRLSVSGFGGGVIYYPTGTTLTFGGIAMSPGYTADASSLAWLGRRLASHGFVVIVINTNSRLDFPDSRASQLSAALNYLRTSSPSAVRARLDANRLAVAGHSMGGGATLRISEQIPTLKAGVPLTPWHTDKTFNTPVPQLIVGAEADTVAPVSQHAIPFYQNLPSTTPKVYVELDNATHFAPNSPNAAISVYTISWMKLWVDNDTRYRQFLCNVNDPALSDFRSNNRHCQ
For B6, in the data set with BHET, the Km was determined as 16800 µM, the kcat was 7.3 s⁻¹ and the kcat/Km came to 435 M⁻¹ s⁻¹. In the data set with p-NP-C2, the Km worked out at 1150 µM, the catalytic constant (kcat) stood at 131 s⁻¹ and the kcat/Km stood at 114000 M⁻¹ s⁻¹. Besides, in the data set with p-NP-C4, the Km amounted to 300 µM, the kcat was 53.9 s⁻¹ and the catalytic efficiency (kcat/Km) was found to be 180000 M⁻¹ s⁻¹.

By Km is commonly meant the concentration of substrate that gives half-maximal velocity. In general, kcat refers to the number of substrate molecules converted per active site and unit of time at saturation. The term kcat/Km denotes the turnover number divided by the Michaelis constant.
